How the values were obtained:
hWAT-SVF clones = assay: Clonal analysis: UCP1-luciferase response to BMP7 pretreatment; assay type: cell-based, human; conditions: for clones UCP1(+), BMP7 Resp(+) / clones UCP1 (−), BMP7 Resp(+) / clones UCP1(−), BMP7 Resp(−): hWAT-SVF clones
Procedure: (§1) FIG. 8 depicts clonal analysis of human brown and white fat progenitors. Specifically, the strategy of clonal analysis of hWAT-SVF and hBAT-SVF progenitors is shown as a dendrogram. 152 clones from hWAT-SVF and 128 clones from hBAT-SVF were derived by limiting dilution from 4 subjects. Adipogenic capacity was determined by Nile red staining and UCP1 level was determined by luciferase activity on day 18. Detailed selection criteria are described in FIGS. 9 and 10. Selected highly adipogenic clones (adipogenic++) were pre-treated with 3.3 nM BMP7 for 6 days and then differentiated into mature adipocytes in a 96-well plate. Luciferase activity was measured on day 18 and divided into different levels (negative, Neg; low; medium, Med; high) after normalized to protein content. The positive response (+) to BMP7 pretreatment was defined by more than 1.5-fold increase of luciferase activity between BMP7-pretreated and vehicle groups.
(§2) Immortalized progenitor cells were plated and grown in DMEM/H medium supplemented with 10% FBS (day 0). For adipocyte differentiation, cell were grown for 6 days until reaching confluence (day 6), and then treated with the adipogenic induction medium as described above for 12 days (termed as day 18). To further stimulate thermogenic program, fully differentiated cells were incubated with 10 μM forskolin for 4 h. For BMPs and FGF21 pre-treatment, recombinant BMP7 (3.3 nM), BMP8 (3.3 nM), or FGF21 (50 nM) were added to undifferentiated cells in medium containing insulin (0.5 μM), T3 (2 nM) and 2% FBS for 6 days followed by adipogenic induction for 12 days. For BMPs and FGF21 post-treatment, fully differentiated adipocytes at day 18 were treated with recombinant BMP7 (3.3 nM), BMP8 (3.3 nM), or FGF21 (50 nM) in medium containing insulin (0.5 μM), T3 (2 nM) and 2% FBS for 2 days.
(§3) In vitro luciferase assays were performed using luciferase assay kits (Promega, Madison, Wis.) according to the manufacturer's instructions. Remove culture medium from differentiated adipocytes and wash cells in PBS. Dispense an appropriate volume of 1× lysis reagent (Passive Lysis Buffer) into each culture well. Scrape attached cells from the wells, and transfer the cell lysates into white 96-well plate (Corning Inc., Tewksbury, Mass.) for detection of the bioluminescence signal using luminometer plate reader (BioTek Instruments, Inc., Winooski, Vt.). Use a reagent injector to dispense 100 μL of Luciferase assay buffer with substrate and 100 μL of Stop & Glo Reagent. And perform a 2-second pre-measurement delay, followed by a 10-second measurement period for each reporter assay. Luciferase activity data were normalized to protein content.
(§4) To derive subclones of immortalized human white and brown progenitors with hUCP1-promoter-Luc/GFP reporter, limiting dilution of cells into 96-well plates was performed as previously described (Tchkonia, T., et al. Diabetes 55, 2571-2578, 2006). Briefly, cells were plated at 50 cells/96-well plate in DMEM/H containing 10% FBS. After 2 weeks, colonies were evident. Cells at approximately 80% confluence were trypsinized and further propagated in 48-well, then 12-well and finally 6-well plate. 152 clonal lines originated from neck superficial fat depot and 128 clonal lines from deep fat were selected for adipogenic potential after induction. The highly adipogenic clonal lines were selected for further analysis (67 clonal white fat progenitor lines; 90 clonal brown fat progenitor lines).

hBAT-SVF clones = assay: as above; assay type: cell-based, human
Procedure: as §1, §2, §3, §4

clones UCP1(+), BMP7 Resp(+) (hWAT-SVF clones; Subject 1): 0/32
clones UCP1 (−), BMP7 Resp(+) (hWAT-SVF clones; Subject 1): 0/32
clones UCP1(−), BMP7 Resp(−) (hWAT-SVF clones; Subject 1): 32/32
clones UCP1(+), BMP7 Resp(+) (hWAT-SVF clones; Subject 2): 0/20
clones UCP1 (−), BMP7 Resp(+) (hWAT-SVF clones; Subject 2): 0/20
clones UCP1(−), BMP7 Resp(−) (hWAT-SVF clones; Subject 2): 20/20
clones UCP1(+), BMP7 Resp(+) (hWAT-SVF clones; Subject 3): 1/12
clones UCP1 (−), BMP7 Resp(+) (hWAT-SVF clones; Subject 3): 0/12
clones UCP1(−), BMP7 Resp(−) (hWAT-SVF clones; Subject 3): 11/12
clones UCP1(+), BMP7 Resp(+) (hWAT-SVF clones; Subject 4): 0/3
clones UCP1 (−), BMP7 Resp(+) (hWAT-SVF clones; Subject 4): 0/3
clones UCP1(−), BMP7 Resp(−) (hWAT-SVF clones; Subject 4): 3/3
clones that could respond to BMP7 pretreatment (hWAT-SVF clones; highly adipogenic hWAT-SVF clones, response = more than 1.5-fold increase of luciferase activity): 1%
clones that could respond to BMP7 stimulation (hBAT-SVF clones; hBAT-SVF clones from Subject 2 and Subject 3): more than 60%
clones UCP1(+), BMP7 Resp(+) (hBAT-SVF clones; hBAT-SVF clones, Subject 1): 10/41
clones UCP1(+), BMP7 Resp(−) (hBAT-SVF clones; hBAT-SVF clones, Subject 1): 29/41
clones UCP1(+), BMP7 Resp(−), percent (hBAT-SVF clones; hBAT-SVF clones, Subject 1): (71%)
clones UCP1(−), BMP7 Resp(−) (hBAT-SVF clones; hBAT-SVF clones, Subject 1): 2/41
clones UCP1(+), BMP7 Resp(+) (hBAT-SVF clones; hBAT-SVF clones, Subject 2): 10/15
clones UCP1(+), BMP7 Resp(+), percent (hBAT-SVF clones; hBAT-SVF clones, Subject 2): (67%)
clones UCP1(+), BMP7 Resp(−) (hBAT-SVF clones; hBAT-SVF clones, Subject 2): 5/15
clones UCP1(−), BMP7 Resp(−) (hBAT-SVF clones; hBAT-SVF clones, Subject 2): 0/15
clones UCP1(+), BMP7 Resp(+) (hBAT-SVF clones; hBAT-SVF clones, Subject 3): 9/15
clones UCP1(+), BMP7 Resp(+), percent (hBAT-SVF clones; hBAT-SVF clones, Subject 3): (60%)
clones UCP1(+), BMP7 Resp(−) (hBAT-SVF clones; hBAT-SVF clones, Subject 3): 3/15
clones UCP1(−), BMP7 Resp(−) (hBAT-SVF clones; hBAT-SVF clones, Subject 3): 3/15
clones UCP1(+), BMP7 Resp(+) (hBAT-SVF clones; hBAT-SVF clones, Subject 4): 5/19
clones UCP1(+), BMP7 Resp(−) (hBAT-SVF clones; hBAT-SVF clones, Subject 4): 14/19
clones UCP1(+), BMP7 Resp(−), percent (hBAT-SVF clones; hBAT-SVF clones, Subject 4): (74%)
clones UCP1(−), BMP7 Resp(−) (hBAT-SVF clones; hBAT-SVF clones, Subject 4): 0/19
clones that could be induced by BMP7 pretreatment (hBAT-SVF clones; hBAT-SVF clones, all subjects, response = more than 1.5-fold increase of luciferase activity): up to 37%
response to BMP7 pretreatment (hBAT-SVF clones; majority of the hBAT-SVF clones from Subject 1 and Subject 4): not responsive
B1: BMP7: Recombinant human BMP7, an inducer of brown adipogenesis (protein, UniProt P18075 293-431, looked up)
Bone morphogenetic protein 7: STGSKQRSQNRSKTPKNQEALRMANVAENSSSDQRQACKKHELYVSFRDLGWQDWIIAPEGYAAYYCEGECAFPLNSYMNATNHAIVQTLVHFINPETVPKPCCAPTQLNAISVLYFDDSSNVILKKYRNMVVRACGCH
